T1: Peptide A, amino acid residues 550 to 569 of human CD166 (human)
T1 construct: Coated at 100 or 200 ng/well with 0.9 mg/mL BSA
T1 peptide: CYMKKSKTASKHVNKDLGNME

T2: Peptide B, amino acid residues 565 to 583 of human CD166 (human)
T2 construct: Coated at 100 or 200 ng/well with 0.9 mg/mL BSA
T2 peptide: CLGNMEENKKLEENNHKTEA

T3: human CD166 (human, UniProt Q13740 28-583)
T3 construct: whole, on cells; Endogenous protein detected by IHC on fixed, paraffin-embedded cells and tissues, and by Western blot of cell lysates; also called hCD166
T3 sequence (looked up): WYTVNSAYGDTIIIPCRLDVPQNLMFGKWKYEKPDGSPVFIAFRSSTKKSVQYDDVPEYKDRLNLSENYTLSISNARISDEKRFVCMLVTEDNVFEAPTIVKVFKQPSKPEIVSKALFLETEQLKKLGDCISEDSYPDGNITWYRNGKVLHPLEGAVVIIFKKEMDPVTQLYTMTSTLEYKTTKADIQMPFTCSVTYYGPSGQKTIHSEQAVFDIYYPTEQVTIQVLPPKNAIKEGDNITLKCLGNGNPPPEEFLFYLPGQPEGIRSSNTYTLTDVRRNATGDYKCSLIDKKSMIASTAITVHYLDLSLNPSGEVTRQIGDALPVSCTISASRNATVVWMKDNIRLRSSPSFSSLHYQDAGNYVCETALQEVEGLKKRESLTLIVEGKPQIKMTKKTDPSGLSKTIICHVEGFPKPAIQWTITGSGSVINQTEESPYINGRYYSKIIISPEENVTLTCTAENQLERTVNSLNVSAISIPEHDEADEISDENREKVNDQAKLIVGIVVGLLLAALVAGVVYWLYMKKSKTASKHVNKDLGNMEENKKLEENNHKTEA


Tests used:
[1] = molecular target: T1, Peptide A, amino acid residues 550 to …; test: ELISA, 200 ng/well peptide with 0.9 mg/mL BSA; expanded hybridoma clone supernatant
Description: (§1) B cells from each of Mouse #2 and Mouse #3 were fused in a combined manner to generate hybridomas in accordance with methods known in the art. Hybridomas were cloned and ˜1100 clone supernatants were screened against the each of the human CD166-derived peptides using a Direct EIA format using a goat anti-IgG gamma chain-specific secondary antibody coupled to horseradish peroxidase (HRP) (Millipore, Cat. No. AP503P. Following the initial screen, 136 clones were selected for a further confirmatory screen, of which forty (40) were selected for expansion. The expanded clones were assayed for mouse IgG levels using anti-mouse sensors in an Octet RED96 system (Pall ForteBio) and ELISA (200 ng/well of peptides A or B with 0.9 mg/mL BSA). Candidates included Ab1 (also referred to herein as “Example anti-CD166 ICD antibody 1”), Ab2 (also referred to herein as “Example anti-CD166 ICD antibody 2”), Ab3, Ab4, Ab5, Ab6, Ab7, and Ab8. Five candidates (Ab1, Ab2, Ab3, Ab4, and Ab5) shown below in Table 4 were selected.

[2] = molecular target: T2, Peptide B, amino acid residues 565 to …; test: as above
Description: as §1

human CD166 = molecular target: T3, human CD166; test: IHC on FFPE HCC1806 cells, supernatant at 10 µg/mL IgG
Procedure: As shown in the exemplary IHC images of FIGS. 1-4, formalin-fixed paraffin-embedded (FFPE) human tumor cell lines (triple-negative breast cancer-derived cell line HCC1806 and breast ductal carcinoma-derived cell line BT-20) were prepared and blocked using standard protocols, and then incubated with the indicated hybridoma supernatents (Ab3, Ab6, Ab2, Ab1, Ab5, Ab7, Ab4, or Ab8 of the present disclosure) at 10 μg/mL IgG for 60 minutes are room temperature. As a control, FFPE samples were also incubated with ABCAM® EPR2759(2)/ab109215 anti-hCD166 rabbit monoclonal antibody at 5 μg/mL. Detection of bound primary antibody was performed by subsequent incubation with biotinylated-conjugated anti-mouse IgG antibody (for the hybridoma supernatents) or biotinylated-conjugated anti-rabbit IgG antibody (for the ABCAM® antibody), followed by addition of avidin-horseradish peroxidase (HRP) (Vectastain Elite ABC HRP Kit, Vector Laboratories) to form the avidin-biotin-HRP complex, followed by addition of a 3,3′-diaminobenzidine substrate (DAB Plus, Dako). Tissues were counterstained with Hematoxylin (Fisher Scientific).

A620 [1] [A620]	A620 [2] [A620]	binding result (human CD166)	Binder
0.162	3.23	binds	Ab1 anti-hCD166 mouse monoclonal antibody (antibody, mouse IgG1, kappa, also called recombinant Ab1) heavy: EVQLQQSGAELVKPGASVKLSCTASGFNIKDYYMHWVKQRTEQGLEWIGKIDPENGETKYAPKFQGKATITADTSSSTAYLQLSSLTSEDTAVYYCAREGFMDYWGQGASVTVSSAKTTPPSVYPLAPGSAAQTNSMVTLGCLVKGYFPEPVTVTWNSGSLSSGVHTFPAVLQSDLYTLSSSVTVPSSTWPSQTVTCNVAHPASSTKVDKKIVPRDCGCKPCICTVPEVSSVFIFPPKPKDVLTITLTPKVTCVVVDISKDDPEVQFSWFVDDVEVHTAQTQPREEQFNSTFRSVSELPIMHQDWLNGKEFKCRVNSAAFPAPIEKTISKTKGRPKAPQVYTIPPPKEQMAKDKVSLTCMITDFFPEDITVEWQWNGQPAENYKNTQPIMDTDGSYFVYSKLNVQKSNWEAGNTFTCSVLHEGLHNHHTEKSLSHSPGK light: DVVMTQTPLSLPVSLGDQASISCRSSQSLVHSNGNTYLHWYLQKPGQSPKLLIYKVSNRFSGVPDRFSGSGSGTDFTLKISRVEAEDLGVYFCSQSTFVPLTFGAGTKLELKRADAAPTVSIFPPSSEQLTSGGASVVCFLNNFYPKDINVKWKIDGSERQNGVLNSWTDQDSKDSTYSMSSTLTLTKDEYERHNSYTCEATHKTSTSPIVKSFNRNEC
0.067	3.02	binds	Ab2 anti-hCD166 mouse monoclonal antibody (antibody, mouse IgG1, kappa, Tested as hybridoma supernatant and as antibody purified from hybridoma supernatant) heavy: EVQLQQSGAELVKPGASVKLSCTASGFNIKDYYMHWVRQRTEQGLEWIGKIDPEDGETKYAPKFQGKATITADTSSNTAYLQLSSLTSEDTAVYYCAREGFMDYWGQGTSVTVSSAKTTPPSVYPLAPGSAAQTNSMVTLGCLVKGYFPEPVTVTWNSGSLSSGVHTFPAVLQSDLYTLSSSVTVPSSTWPSQTVTCNVAHPASSTKVDKKIVPRDCGCKPCICTVPEVSSVFIFPPKPKDVLTITLTPKVTCVVVDISKDDPEVQFSWFVDDVEVHTAQTQPREEQFNSTFRSVSELPIMHQDWLNGKEFKCRVNSAAFPAPIEKTISKTKGRPKAPQVYTIPPPKEQMAKDKVSLTCMITDFFPEDITVEWQWNGQPAENYKNTQPIMDTDGSYFVYSKLNVQKSNWEAGNTFTCSVLHEGLHNHHTEKSLSHSPGK light: DNVMTQTPLSLSVSLGDQASISCRSSQSLVHSNGNTYLHWYLQKPGQSPKLLIYKVSNRFSGVPDRFSGSGSGTDFTLKISRVEAEDLGVYFCSQSTHVPLTFGAGTKLELKRADAAPTVSIFPPSSEQLTSGGASVVCFLNNFYPKDINVKWKIDGSERQNGVLNSWTDQDSKDSTYSMSSTLTLTKDEYERHNSYTCEATHKTSTSPIVKSFNRNEC

From patent publication US20200223919A1 (CYTOMX THERAPEUTICS, published 2020)
